Source: US20230226096A1 (Orna Therapeutics, Inc., priority 2020, published 2023)

B1: Niviventer confucianus picornavirus (nucleic acid)
DNA: CCCTTTCATAACCCCCCCCTTTTAACCCAACCCTTCGTAACCGTACGCTTCACTCGCCTTTGGGTATAGCGGCCCAATGTGCTGAAGAAAAGGATACGCTATAAGGGGCCAACGGGTGGTGGCCCTTAAGACCACCCAACCTAGAAGCTTGTACACTCGGGCAATAGTGAGGCCCACATCCAGTGGGTCAAGCCCAAAGCATTCTTGTTCCCCGGTATGATCTCATAAGCTGTACCCACGGCTGAAAGAGTGATTATCGTTATCCCACTCAGTACTTCGGAGAGCCTAGTACACCACTTGGAAATGGAAGTCTGTGATCCGGGGTTGACCCTGAACCCCAGAAACTCATGATGAGGCTAACCTTCCCGAACACGGCGACGTGTGGTTAGCCTGCGCTGGCATGAGGCCTCTTTGTAGGCAGACTGAAATGGAAGGGTGACGAAGAGCCGACTGAGCTACTGTTTTATTCCTCCGGCCCCCTGAATGCGGCTAATCCTAACTCCTGGTCCAGTACTTGTAACCCAACAGGTGGCTGGTCGTAATGCGTAAGCCGGGAGCGGAACCGACTACTTTGGGGCGTCCGTGTTTCTCAATATTATTCATTTCTAGCTTATGGTGACAATTTATGATTGCAGAGATTGTGCTGTATTTGTGTCTGAGAGAAGAAGTAACAAT
B2: Human enterovirus C105 (nucleic acid, listed as Enterovirus sp.)
DNA: CCCCTAGGATCCACTGGATGTCAGTACACTGGTATCGTGGTACCTTTGTACGCCTGTTTTATACCCCCTTCCCCGCAACTTTAGAAGCATCAAAAGCACCGCTCAATAGTCACCACACCCCCAGTGTGGTTTCGAGCAAGCACTTCTGTTTTCCCGGTTGCGTCCCATATGCTGTGCAAACGGCAAAAAGGGACAATATCGTTACCCGCTTGTATACTACGGGAAACCTAGTACCACCATTGATTGTGTTGAGAGTTGCGCTCATCACCTTTCCCCGGTGTAGCTCAGGCCGATGAGGCTCAGAATCCCCCACAGGTGACTGTGTCTGAGCCTGCGTTGGCGGCCTGCCCTCGCCTTATGGCGTGGGACGCTTGATACATGACATGGTGCGAAGAGTCTACTGTGCTATGCAAGAGTCCTCCGGCCCCTGAATGTGGCTAATCCTAACCACTGATCCCACGCACGCAAACCAGTGTGTAGTGGGTCGTAACGCGCAAGTCGGTGGCGGAACCAACTACTTTGGGTGACCGTGTTTCCTTTATTACTTATTGAATGTTTATGGTGACAATTGTTTGATTCAGTTGTTGCCATTCTCTACATTCATTTACCCAGCATCAAACCAATTGAACTGTTACA
B3: Bovine picornavirus (nucleic acid)
DNA: TTTTCTCCCCTCCCCCTCCAACTACCTTTTCCCCCTCTTGTAACGCTAGAAGTTTGTGCAAACCGCCTGTAGGGTACTGCAATCCAGCAGTGCATAGGCTAAGCTTTTCTTGTTACCCCACCCCACATTATACTGAGGAGGATTGTGAAATTGTGTTAGTATGGGTTAGTAGCGGTGACCCGGGTAACCCCAACCCAGAAACTCACGGATGAGATGAACAGGACCCCACATGGTAACGTGTGTGTTCGTCTGCCCCGCAAGGTGAGGCCGTGAGAGCTTTGCACGCGAAAACCTTGAAAACCCAAAAGTACCTTGAGCTCTTCGCTATTTTGTGTTTCCTCCAGGACCCTGAATGCGGCTAAACCTAACCCGCGATCCGCACGTAGCAACCCAGCTAGAGTGTGGTCGTAATGCGCAAGTTGCGGGCGGTACCGACTACTTTGGTGTTCCTGTGTTTCCTTTATTTTATTTTGAATTTTTATGGTGACAACAGCTAGAAAATAAGAGTGAAC
B4: Bat picornavirus isolate BtRs-PicoV (nucleic acid)
DNA: TTTCAAAAGGCCCTGGGCATACGGCGTTATTCGTAACGTCGTATGTCCAGGGCGGTAGCATCAGGCCAAGGCCTGATGCTACCACGTGTGGACTAAACCACACACTCTTCTTGTGACACGTTGTGTCACCTATCCCTTTCTTGGTAACTTAGAAGCTTGTACACTTACGCACGTAGGTGCCCCACATCCAGTGGGGTTTGTGCAAAGCAATCTTGTTCCCCGGTAAACCCTGATAGGCTGTAACCACGGCCGAAACAAGGTTTGTCGTTACCCGACTCACTACTACACAAAGCCTAGTAAAGTTCAATGAAAGTGCGCAGCGTGATCCGGTCAAAACCCCCTTGACCAGAAACACATGATGAGGGTCACCAACCCCCACTGGCGACAGTGTGGTGTCCCTGCGTTGGCATGTGGCCTCGTAGAGGCGTTGCAATCTGGATTTGCTCCGAAGAGCCCCGTGTGCTAGTGTTTATACCTCCGGCCCCTTGAATGCGGCTAATCCTAACCCCCGAGCATGTACACACAAGCCAGTGTGTAGCATGTCGTAATGAGCAATTTGGGGATGGAACCGACTACTTTAGGGTGTCCGTGTTTCTCATTATTCTTTGTTTGATGTTTT
B5: Rhinolophus picornavirus strain Henan-Rf265 (nucleic acid)
DNA: CGGAACGTTGTATGCTCAGGGCGTAGGCACCACCCACGGGTGGTGCCTACACGTGTGGACTAAACCACACACTCTTTTCAGCACTTAGTGCTGCTATCTCTTTTTGTAACTTAGAAGTTTGTACACAATGCGTTAGGGCCACACATCCAGTGTGGTATCGCAAAGCACTTCTGTTTCCCCGGTGCTAGTAGGAGGGTGGCTGCTCCACGGCCACTTGCCGAACCCATCGTTACCCGACTCATTACTTCGCAAAGCCTAGTAACCCAGTTGAAGCAAGCCCGGCGTGTTCCGGTCAGGAAAAACCCCCCCTGGCCAGAAACATGTGATGAGGGTGGGCTATCCCCACTGGTGACAGTGAGCCCTCCCTGCGTTGGCACATGGCCCGATCTGGGCGTGGTTCTTGTGGATGCTGCCGAAGAGCCCCGTGAGCTAGTGTTTATACCGCCGGCCTCGTGAATGCGGCTAACCCTAACCCCGGAGCAGAGGCTACTGAAGCCACAGTAGTCGCTGTCGTAACGAGTAATTCTGGGATGGGACCGACTACTTTCGAGTGTCCGTGTTTCCTTTATTCTTTTATTGTTGTTTATGGTGACAAAC
B6: Human enterovirus 109 (nucleic acid, listed as Enterovirus sp.)
DNA: TTTAAAACAGCCTGGGGGTTGTTCCCACCCCCAGGGCCCACTGGGCGTTAGTACTCTGGTATCGCGGTACCTTAGTATGCCTGTTTTATGTCTCCTTTCCCCCGCAACTTTAGAAGTAATCAAGTTATGGCTCAACAGTCGCCACACCCCCAGTGTGGTTCCGAGCAAGCACTTCTGTTCCCCGGTTGCGTCTTATATGCTGTGTGAACGGCAGAAAGGGACAATATCGTTATCCGCTCAACTACTACGGGAAGCCTAGTACCACCATGGATTGACCTGAAAGTTGCGTTCAGCGCACCCCCAGCGCAGCTCAGGCCGATGAGGCTCCGAATACCCCACGGGCGACCGTGTCGGAGCCTGCGTTGGCGGCCTGCCCACGTTGCAAAACGTGGGACGCTCATTTCATGACATGGTGCGAAGAGCCTACTGTGCTAGTTGAGAGTCCTCCGGCCCCTGAATGTGGATAATCCTAACCACTGAACCTACGGGCGCAAACCAGCGTCTGGTAGGCCGTAACGCGCAAGTCGGTGGCGGAACCAACTACTTTGGGTGTCCGTGTTTCCTTTTATCTTTTTGAATGTTTATGGTGACAATTGTTGTGTACAGTTGTTACCATAGTTTGCATTCAGAAATAAACCTAACACTTTCCAATTATTTGTTACA
B7: Apodemus agrarius picornavirus strain Longquan-Aa118 (nucleic acid)
DNA: TTACTCAGCGTAACTACTCCGGGTTACGTGATGAAGAAGAGGCTACGGAGATTCTCGGGCTACGGCCCTGGAGCCACTCCGGCTCCTAAAGATTTAGAAGTTTGAGCACACCCGCCCACTAGGGCCCCCCATCCAGGGGGGCAACGGGCAAGCACTTCTGTTTCCCCGGTATGATCTGATAGGCTGTAACCACGGCTGAAACAGAGATTATCGTTATCCGCTTCACTACTTCGAGAAGCCTAGTAATGATGGGTGAAATTGAATCCGTTGATCCGGTGTCTCCCCCACACCAGAAACTCATGATGAGGGTTGCCATCCCGGCTACGGCGACGTAGCGGGCATCCCTGCGCTGGCATGAGGCCTCTTAGGAGGACGGATGATATGGATCTTGTCGTGAAGAGCCTATTGAGCTAGTGTCGACTCCTCCGCCCCCGTGAATGCGGCTAATCCTAACCCCGGAGCAGGTGGGTCCAATCCAGGGCCTGGCCTGTCGTAATGCGTAAGTCTGGGACGGAACCGACTACTTTCGGGAAGGCGTGTTTCCATTTGTTCATTATTTGTGTGTTTATGGTGACAACTCTGGGTAAACGTTCTATTGCGTTTATTGAGAGATTCCCAACAATTGAACAAACGAGAACTACCTGTTTTATTAAATTTACACAGAGAAGAATTACA
B8: Aichivirus KVGH (nucleic acid, listed as Aichivirus sp.)
DNA: TACTCCATTCAGCTTCTTCGGAACCTGTTCGGAGGAATTAAACGGGCACCCATACTCCCCCCCACCCCCCTTTTGTAACTAAGTATGTGTGCTCGTGACCTTGACTCCCACGGAACGGACCGATCCGTTGGTGAACAAACAGCTAGGTCCACATCCTCCTTTCCCCTGGGAGGGTCCCCGCCCTCCCACATCCCCCCCCCAGCCTGACGTGTCACAGGCTGTGTGAAGCCCCCGCGAAAGCTGCTCACGTGGCAATTGTGGGTCCCCCCTTCATCAAGACACCAGGTCTTTCCTCCTTAAGGCTAGCCCCGGCGTGTGAACTCACGTTGGGCAACTAGTGGTGTCACTGTGCGCTCCCAATCTCGGCCGCGGAGTGCTGTTCCCCAAGCCAAACCCCTGGCCCTTCACTATGTGCCTGGCAAGCACACCTGAGAAGGTGTTCCGCTGTGGCTGCCAGCCTGGTAACAGGTGCCCCAGTGTGCGTAACCTTCTTCCGTCTTCGGACGGTGGTGATTGGTTAAGATTTGGTGTAAGGTTCATGTGCCAACGCCCTGTGCGGGATGAAACCTCTACTGCCCTAGGAATGCCAGGCAGGTACCCCACCTTCGGGTGGGATCTGAGCCTGGGCTAATTGTCTACGGGTGGTTTCATTTCCAATTCTTTCATGTCGGAGTC
B9: Aichivirus DV (nucleic acid, listed as Aichivirus sp.)
DNA: TACTCCATTCAGCTTCTTCGGAACCTGTTCGGAGGAATTAAACGGGCACCCATACACCCCCACCCCCTTTTCTGCAACTTAAGTATGTGTGCTCGTAATCTTGACTCCCACGGAACGGATCGATCCGCTGGAGAACAAACTGCTAGATCCACATCCTCCCTTCCCCTGGGAGGACCCCGGTCCTCCCACATCCTCCCCCCAGCCTGACGTAACACAGGCTGTGTGAAGTCCCCGCGAAAGCTGCTCACGTGGCAATTGTGGGTCCCCCCTTCACCAAGACACCAGGTCTTTCCTCCTTAAGGCTAGCCCCGATGTGTGAATTCACATTGGGCAACTAGTGGTGTCACTGTGCGCTCCCAATCTCGGCCGCGGAGTGCTGTTCCCCAAGCCAAACCCCTGGCCCTTCACTATGTGCCTGGCAAGCATATCTGAGAAGGTGTTCCGCTGTGGCTGCCAGCCTGGTAACAGGTGCCCCAGTGTGCGTAACCTTCTTCCGTCTCCGGACGGTAGTGATTGGTTAAGATTTGGTGTAAGGTTCATGTGCCAACGCCCTGTGCGGGATGAAACCTCTACTGCCCTAGGAATGCCAGGCAGGTACCCCACCTTCGGGTGGGATCTGAGCCTGGGCTAATTGTCTACGGGTAGTTTCATTTCCAATTCTTTTATGTCGGAGTC

Each molecule was assayed on HEK293 cells. Settings: luminescence from secreted Gluc in supernatant 24 hours after transfection of HEK293 cells; circular RNA encoding Gluc with the named IRES (UTR truncated to 675 nt).
Format: cell-based, human
B1 showed an Expression of 6.10E+07. B2 showed an Expression of 5.49E+05. B3 was tested, and the Expression was 3.82E+06. For B4, the Expression was 1.13E+06. B5 gave an Expression of 3.85E+05. In the case of B6, the Expression is reported as 4.92E+05. B7 was tested, and the Expression was 1.90E+08. B8 gave an Expression of 1.72E+07. Molecule B9 has an Expression of 7.79E+07.
